Reference: PMC5080983 (Nature communications, 2015)
Changes are numbered by the printed parent chain. Blank lines part the entries; values can stand above or below the binder they belong to. Where no end group is shown, it is not given here. [ ]: non-standard residue; d: D form. Arg(Me2a) = CN(C)C(=N)NCCC[C@H](N)C(=O)O; Arg(Me2s) = CN=C(NC)NCCC[C@H](N)C(=O)O; fluorescent label = not defined here

Experiments:
Test in all cases: fluorescence polarisation
[1] = biological target: T1, histone H3 tail peptide (1–18) symmetrically dimethylated at Arg2 (H3R2me2s) (UniProt P68431 2-19)
T1 peptide (looked up): A[Arg(Me2s)]TKQTARKSTGGKAPRK

[2] = biological target: T2, histone H3 tail peptide (1–18) asymmetrically dimethylated at Arg2 (H3R2me2a) (UniProt P68431 2-19)
T2 peptide (looked up): A[Arg(Me2a)]TKQTARKSTGGKAPRK

GST-PHD1 W335A of KDM5A = biological target: T3, GST-PHD1 W335A of KDM5A (UniProt P29375 291-347, W335A)
T3 sequence (looked up): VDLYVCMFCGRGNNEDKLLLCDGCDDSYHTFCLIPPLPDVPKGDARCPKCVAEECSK

fold reduction of binding affinity against unmodified H3 [1]: ~5 fold
fold reduction of binding affinity against unmodified H3 [2]: ~5 fold
B1: GST-PHD1_(291–347) of KDM5A (domain or fragment, UniProt P29375 291-347, looked up)
chain: T3 sequence (looked up) with A45W

Kd (GST-PHD1 W335A of KDM5A): > 100 µM
Binder: ARTKQTARKSTGGKAPRK-{fluorescent label} (peptide, UniProt P68431 2-19, looked up, reading uncertain) [histone H3 tail peptide H3_(1–18), unmethylated Lys4 (H3K4me0)]
